The text below walks through data of article PMC11496930, “Targeting RSV-neutralizing B cell receptors with anti-idiotypic antibodies” (Cell Reports, 2024).

In this assay the target is ADI-19425 Fab (human, UniProt P0DOY2). Description: BLI; 1D3 IgG or 2C1 IgG (67 nM) on anti-human IgG capture sensors; ADI-19425 Fab in serial dilutions from 250 nM to 0 nM; KB buffer, 30°C; 1:1 binding model. The note with it: both partners purified. A general note: BLI is a label-free optical method that tracks binding on a fibre tip over time.
Sequence of ADI-19425 Fab (VH, as listed by the source, chain 1 of 2): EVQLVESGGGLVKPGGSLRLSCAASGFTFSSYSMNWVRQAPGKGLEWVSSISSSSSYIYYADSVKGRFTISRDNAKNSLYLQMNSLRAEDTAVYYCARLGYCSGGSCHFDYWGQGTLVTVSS
Sequence of ADI-19425 Fab (VL, as listed by the source, chain 2 of 2): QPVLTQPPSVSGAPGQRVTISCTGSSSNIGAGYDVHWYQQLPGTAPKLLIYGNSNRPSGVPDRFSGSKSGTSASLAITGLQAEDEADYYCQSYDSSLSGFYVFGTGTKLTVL

B1: 2C1 recombinant IgG (human constant regions) (antibody, V domains shown)
VH: QVQLQQSGAELVRPGASVTLSCKASGYIFTDYEIHWLKQTPVHGLEWIGTSDPETGGFAYTQKFKGKAILTADKSSSTAYMELRSLTSEDSAVYYCTRRPYYGSGAWFAYWGQGTLVTVSA
VL: DIVMTQSHKFMSTSVGDRVSITCKANHDVNIAVAWYQQKPGQSPKLLIYSASYRYTGVPDRFTGSGSGTDFTFTISSVQAEDLAVYYCQQHYDTPRTFGGGTKLEIK
notes: also called 2C1-IgG; 2C1 IgG; source: 293-6E cells, purified (Protein A)
The term Kd denotes the concentration at which binding is half-saturated. Low readings indicate higher affinity, high ones lower affinity. In the case of B1, the Kd came out at 1.5 nM.

B2: 1D3 recombinant IgG (human constant regions) (antibody, V domains shown)
VH: QVQIQQSGAELMRPGASVKLSCKATGYTFTGYWIEWVKQRPGHGLEWIGEILSGRGTTNYNEKFKGKATFTADTYSNTAYMQLSSLTTGDSAIYYCARGGFLYGDGPFDYWGQGTTLTVSS
VL: DILLTQSPAILSVSPGERVSFSCRASQNIDTHIHWYQQRTNGSPRLLIKYASESISGIPSRFSGSGSGTDFTLTINSVESEDIADYYCQQSNSWPFTFGSGTKLEIK
notes: also called 1D3-IgG; 1D3 IgG; source: 293-6E cells, purified (Protein A)
B2: the Kd amounted to 0.4 nM.
